The numbers were not newly measured in publication PMC3556358, which cites them from elsewhere.

The target of the data set is insulin receptor (Homo sapiens) (UniProt P06213).
Chain of UniProt P06213 (P06213 763-1382): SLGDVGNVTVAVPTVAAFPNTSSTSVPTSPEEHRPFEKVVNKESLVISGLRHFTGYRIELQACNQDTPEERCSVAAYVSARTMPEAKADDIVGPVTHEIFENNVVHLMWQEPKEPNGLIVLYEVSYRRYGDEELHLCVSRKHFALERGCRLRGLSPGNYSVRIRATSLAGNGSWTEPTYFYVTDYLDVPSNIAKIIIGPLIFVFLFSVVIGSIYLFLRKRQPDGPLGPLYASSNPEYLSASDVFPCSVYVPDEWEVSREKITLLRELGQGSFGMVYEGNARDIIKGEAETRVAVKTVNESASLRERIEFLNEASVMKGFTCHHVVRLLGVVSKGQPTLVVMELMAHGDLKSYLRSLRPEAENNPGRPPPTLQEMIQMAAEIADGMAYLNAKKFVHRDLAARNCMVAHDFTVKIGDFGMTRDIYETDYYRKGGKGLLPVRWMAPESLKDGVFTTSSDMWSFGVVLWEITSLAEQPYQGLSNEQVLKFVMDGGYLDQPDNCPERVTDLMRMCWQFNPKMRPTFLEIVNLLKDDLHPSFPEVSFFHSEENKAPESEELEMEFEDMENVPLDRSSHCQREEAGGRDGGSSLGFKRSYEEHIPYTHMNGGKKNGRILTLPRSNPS

Chain of insulin (P01308 90-110): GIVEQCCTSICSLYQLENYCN

With insulin (from UniProt P01308), the Kd (as a rule, the free concentration of one partner at which half of the binding sites on the other are occupied at equilibrium, for simple one-to-one binding) is 0.3 nM.
